Target: T1, Flag-tagged GAS41, purified (human, UniProt O95619 1-227)
T1 construct: GAS41, human, full-length cDNA amplified from A549 cDNA; also called purified GAS41 proteins
Assay: pull-down; GST or GST-NRF2 fragments on GST Bind Resin incubated with purified GAS41 in BC200 buffer for 4 h at 4 °C, washed six times with BC200; western blot
Details: both partners purified

T1 sequence (O95619 whole entry): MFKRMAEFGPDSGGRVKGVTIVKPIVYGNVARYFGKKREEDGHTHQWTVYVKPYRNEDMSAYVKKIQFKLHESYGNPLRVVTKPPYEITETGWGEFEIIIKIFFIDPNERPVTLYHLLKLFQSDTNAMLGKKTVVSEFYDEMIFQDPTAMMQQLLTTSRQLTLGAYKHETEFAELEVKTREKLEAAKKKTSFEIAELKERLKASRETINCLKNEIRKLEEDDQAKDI

binding result: binds
B1: GST-NRF2-CT (Neh1 and Neh3 domains of NRF2, AA. 434-605) (domain or fragment, UniProt Q16236 434-605, looked up)
chain: PGHRKTPFTKDKHSSRLEAHLTRDELRAKALHIPFPVEKIINLPVVDFNEMMSKEQFNEAQLALIRDIRRRGKNKVAAQNCRKRKLENIVELEQDLDHLKDEKEKLLKEKGENDKSLHLLKKQLSTLYLEVFSMLRDEDGKPYSPSEYSLQQTRDGNVFLVPKSKKPDVKKN
notes: NRF2, Neh1 and Neh3 domains, amino acids 434-605; That the 434-605 fragment is the construct called GST-NRF2-CT in the methods is inferred

From publication PMC10957913, “GAS41 modulates ferroptosis by anchoring NRF2 on chromatin” (Nature Communications, 2024)
